The source of these data is patent US5973110A, “Cytotoxic T-lymphocyte antigen as cysteine protease inhibitor” (Bayer Corporation, priority 1995, dated 1999).

No end group written: not given here.

For assay [1], the system named is cartilage proteoglycan degradation. The note with it: at 100 uM concentrations; cited from earlier work.
Assay [2] has as its target T1, human liver Cathepsin L (Homo sapiens, UniProt P07711). As to the kind of experiment: Cathepsin L assay (fluorescence, Z-Phe-Arg-AMC hydrolysis). On the set-up: from tissue; b54 says 'human kidney cell cathepsins'. It is filed as biochemical.
Target sequence in this assay (P07711 114-288 limits assumed): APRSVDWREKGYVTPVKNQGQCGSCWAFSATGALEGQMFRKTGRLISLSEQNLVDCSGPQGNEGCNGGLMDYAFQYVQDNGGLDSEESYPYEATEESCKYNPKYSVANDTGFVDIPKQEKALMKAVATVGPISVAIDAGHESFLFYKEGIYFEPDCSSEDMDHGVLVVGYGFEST
Target sequence in this assay (P07711 292-333 limits assumed): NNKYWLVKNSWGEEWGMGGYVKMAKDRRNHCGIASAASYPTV
Description: A fluorescence based assay was set up according to Barrett and Kirschke (Barrett et al., 1981, Meth. in Enz., 80:535).
After an incubation period of 6 minutes at room temperature, 1500 μl of 0.1% Brij 35 was added. The substrate Z-Phe-Arg-AMC (AMC is aminomethyl-coumarin) was added at a final concentration of either 2.5 μM or 5.0 μM.
The fluorescence of the free aminomethyl-coumarin was measured in an SLM 4800s fluorimeter by excitation at 370 nm and emission at 432 nm over a six minute time period. […] In order to calculate the velocities, a linear least squares analysis was performed over the initial linear part of the data. […]
These peptides were tested for inhibition of Cathepsin L activity using the assays described previously. Briefly, Cathepsin L (19 pM final as determined by active site titration using E-64, Barret & Kirschke, 1991) was added to 750 uL of assay buffer consisting of 340 nM sodium acetate--60 mM acetic acid (pH 5.5), 4 mM disodium EDTA, and 8 mM DTT. […] The fluorescence of the free aminomethylcoumarin was measured in an SLM 4800s fluorimeter at excitation of 370 nm and an emission at 432 nm over a 6 minute time period. Fluorescence was converted to uM AMC released by using a standard curve generated by plotting uM AMC vs. fluorescence, and plotted vs. time. […]
For assay [3], the system named is articular cartilage explants from calf knee joints. Put plainly: Micro organ culture assay (MOCA): IL-1 induced proteoglycan release from articular cartilage explants. It is filed as cell-based. As to conditions: IL-1 induced degradation; p117 10 uM (best concentration). From the text:
The assay system used for testing the peptides for inhibitory activity of proteoglycan release is a micro organ culture assay (MOCA). Papain; cetyl pyridinium chloride and chondroitin sulfate type C was purchased from Sigma Chemical Co. (St. Louis, Mo.). Interleukin 1 alpha was purchased from Collaborative Research. ABCase, chrondroitinase, ABC lyase, and keratanase were obtained from ICI. Na ^35 SO4 was purchased from NEN.
Articular cartilage explants from calf knee joints were maintained in culture in DMEM medium containing 20 uCi/ml Na ^35 SO4 for 48 hours for the incorporation of label into newly synthesized proteoglycan (PG). The radiolabelled medium was then removed, the radiolabelled explants washed 3×30 ml cold DMEM and placed into a 96 well plate with or without IL-1 (Interleukin-1 alpha, 50 U/ml) and various concentrations of p117. The explants were incubated first for 24 hours in the presence of IL-1 in order to ensure initiation of IL-1 induced auto-catalysis prior to the addition of various metalloprotease inhibitors for an additional 72 hours.
The newly synthesized radiolabelled proteoglycans released during the cultivation period were subjected to enzymatic digestion with papain. […] The filter was dried and counted after addition of 10 mls of scintillation cocktail (scintillant).

Assay [4] has as its target T1, human liver Cathepsin L.
For assay [5], the target named is T1, human liver Cathepsin L. This is another data set of the same source.
The target of assay [6] is T1, human liver Cathepsin L. The source holds these as a separate data set.
Another assay concerns cartilage degradation. As to conditions: rabbits, IL-1 injected into joint capsule; cited from earlier work.

With `CC(C)C[C@H](NC(=O)[C@H]1O[C@@H]1C(=O)O)C(=O)NCCCCN=C(N)N` (relative stereo) [E64, trans-epoxysuccinyl-L-leucylamido-(4-guanido)butane], in assay [1], the “inhibition of IL-1 stimulated cartilage proteoglycan degradation (in words)” value is “did not work”.

Take `CC(C)CCNC(=O)[C@H](CC(C)C)NC(=O)[C@H]1O[C@@H]1C(=O)O` [Ep475]: the “inhibition of IL-1 stimulated cartilage proteoglycan degradation (in words)” value in assay [1] is reported as “did not work”.

Consider YSLDEERHRRLMWEENKKKIEAH [p117], for which the IC50 at human liver Cathepsin L [2] (Cathepsin L 19 pM, 5.0 uM Z-Phe-Arg-NMec(AMC), Dixon plot V-/V+ vs. peptide concentration, read-out: i.c. 50 (synthetic peptides, Cathepsin L)) is 5.3 µM. Moreover, on human liver Cathepsin L [2] (summary in Example 7), the “inhibitory activity of the peptides (in words)” value is given as “best activity”. In addition, the “% inhibition of proteoglycan release” value in assay [3] is on record as “about 30%”. Molecule “recombinant (murine) CTLA-2β, dimeric form” showed an i.c. 50 in Cathepsin L Assay with human liver Cathepsin L [4] of 1.1 nM.

As for “recombinant (murine) CTLA-2β, monomeric form”, the i.c. 50 in Cathepsin L Assay with human liver Cathepsin L [4] was 18.2 nM. Moreover, in the assay with human liver Cathepsin L [5], the inhibition of hydrolysis of Z-Phe-Arg-AMC by Cathepsin L (fluorescence) was 60%. For the molecule ENKKKIEAHNADYERGKTSFC [p089], the inhibition of hydrolysis of Z-Phe-Arg-NMec(AMC) by Cathepsin L (fluorescence) (% inhibition at 10 uM) in the assay with human liver Cathepsin L [6] came out at 25.

B1: PN-1: large serine protease inhibitor PN-1 (43 KD) (protein, UniProt P07093 20-398, looked up)
Glia-derived nexin: SHFNPLSLEELGSNTGIQVFNQIVKSRPHDNIVISPHGIASVLGMLQLGADGRTKKQLAMVMRYGVNGVGKILKKINKAIVSKKNKDIVTVANAVFVKNASEIEVPFVTRNKDVFQCEVRNVNFEDPASACDSINAWVKNETRDMIDNLLSPDLIDGVLTRLVLVNAVYFKGLWKSRFQPENTKKRTFVAADGKSYQVPMLAQLSVFRCGSTSAPNDLWYNFIELPYHGESISMLIALPTESSTPLSAIIPHISTKTIDSWMSIMVPKRVQVILPKFTAVAQTDLKEPLKVLGITDMFDSSKANFAKITTGSENLHVSHILQKAKIEVSEDGTKASAATTAILIARSSPPWFIVDRPFLFFIRHNPTGAVLFMGQINKP
Take B1: in the assay with cartilage degradation, the “effect on IL-1 induced cartilage degradation (in words)” value is recorded as “can ameliorate this degradation”.

In the case of YSLDEERHRRLMWEENKKKIEAH [p117], in the assay with human liver Cathepsin L [6], the i.c. 50 was found to be 5.3 µM. The same measure, in the same setting: next, CRGEMAPDLPEYEDLG [p092]: 41 µM.
